From patent CN116574180A

Molecular target: 生物素标记的抗原多肽 (biotin-labelled human collagen IV α1 chain peptide, synthesised by GenScript) (human)
Assay: BLI (Fortebio Octet); biotinylated peptide on SA biosensor, antibody at 100-1.56 nM

B1: 8A12D2-2 (antibody, V domains shown)
VH: EVQLQQSGAELVKPGASVKLSCTASGFNIKDHYMHWVKQRTKQGLEWIGRIDPEDGKTNSAPEFQDKATITSDISSNTVYLQLYSLTSEDTAVYYCAYSNFGFAYWGRGTLVTVSA
VL: DIVMTQAAFSNPVTLGTSTSISCRSSRSLLHSNGITYLYWYLQKPGQSPQLLIYQMSSLASGVPDRFSANGSGTDFTLRISRVEAEDVGVYYCAQKLGLPYTFGGGTKLEIK
**Q.** For B1, which Kd is on record?
**A.** 0.376 nM
